Measured values taken from the DeepSol protein solubility set.

assay: soluble on expression in E. coli; label from the status in PepcDB or PDB records

Sequence	soluble on expression in E. coli
MSLADPADISAASRSVVRVVIIESDGDRANLITHGTGFAVTPNLIVTNAHVVEELRRDDTLIAGVVPAEGRNGFPAKLVAYSPGNDLALLRIEGGGSITPITLFPGAPGDGSEVYAVGYPGNVDLAQGLSMADLVTPQAAVKTRGYLSGGRSSRSFDTLLHTAPLGSGNSGGPLLDSCGRVIGVNSFGTVSDNSTDSAFYFAISMRELSAFLRRANVDAHTSGLPCRSIADLDRAEAERAAGEQARLAAQTAAQADAKQRAMDKARRDAELAILSERDNGEGHHHHHH	soluble
MSLAEFFKDSKASLELRNFYMNKDFRDEVSSAANQQSKQDEWAQGFILKYESGYTEGPVGFGLDMLGLLGVKLDSGPGEAGTGLLPGGYNNRAPDDYSELGVTGKVRFSKTELKVGTLLPKNPVLVYNDTRLLPQTFQGGNLQIKEIEGLTLDFGYLDEVNYRNSTHNEEMSLVNANRRNITIKPGAENEANFFMYGGATYQVTKALTATYYYGELDDLYKQHAVNLVHVLPLGKSSLKTDLRYARSTDDGEAHVDNHAFGLLTTYAMGAHKFGLGLQKMQGDTGFAQINGTDPFLVNYIQVNDFGNADERSWQLRYDYDFAALGIPGLTFMTRYVSGDHVDRGPGSDGKEWERDMDIAYVFQSGMLKNLSLKWRNATMRSNFVRDVDENRLIVSYTLPLLEGHHHHHH	not soluble
MSLAIPFKRINLNLILHLDALLSERSVSAAAEKVFVSQPAMSSSLKQLRELFKDPLLIPGKGEYFLSPKAKELQPQLEQVMFFIRNILQPNERFDPFQTKRSFKIALPDYVELILLPSLMAALEKLPHIVIETTIQSMADDPHLFIDENVDLAIGAINENSLSAQLKVEKLYEEEIICFASKNNPLINRPLSLEDYISNKHIAFSFNQERYSHSAEYLYKRKLVRNDMLFVKNILPAIFAVANSDAVISTAPSFLINMFARQFNLGMQPLPFNLEPTPIYLVTHSKSQYDEGVSWLAKLVSSSIKSPSEGHHHHHH	soluble
MSLAIPRQKMPAQDPVERVGNFKEVNLGLTPEQAQQEALRCIQCKDPVCIAGCPVNIKIDQFIKLIAEGDFMGAVRKIKEDNVLPSICGRVCPQEDQCEKVCVIGKKHEPVAIGNLERFVGDYERTSGQKIDPKIAPPTGKKVAVVGSGPAGLSCANDLAQYGHKVVVFEALHELGGVLMYGIPEFRLPKEIVREELDGLRRMGIEFRTDVVVGRTITIDELMEEEGFDAVFIGVGAGLPWFMGIPGENLVGVLAANEFLTRVNLMKAYDFLKSSDTPVFDCKGKNVAVFGGGNTAMDAVRTAKRLGAEHAYIVYRRSEKEMPAREEEIHNAKEEGIEFLLLTTPLEFVGDEKAWLTGAKCQKMELGEPDDSGRRRPVPVEGSEYILPIDMAIISIGNGPNPLIHQTTPDIEVSKRETIVVDVNTMQTSKENVYAGGDIVTGGATVILAMGAGRKAAAAINEKLGGTAKNEGHHHHHH	soluble
MSLAIQLGKDYTMLSTPQPVADPKKVEVIEFFSYHCIHCYDDDPAFNAWSKTLPADVSFRKEQIVWQKSMEGFARMFATFNATGTFDKLHRAAFDAQIKQRVDLSKPEQFTGWIKQQKGVDSAKLLQTYNSFGINAQVARATKITRDYQIQGTPTVIVNGKYVVVTATPERMIQVMNELVAKAREGHHHHHH	soluble
MSLAKITGGYTATGSAADTMNALAVDDNQSSSGYDRDSFGFRTTDVDGNGCDVRDDVLARDLTDITYKYAGSCVVESGTLADPYTAQTIHFVRGRATSAKVQIDHVVALENAWQSGARDWSTAKRHEFGNDPYNLMAVDGPANQEKGSASAAYWMPTNADYRCDYVARQIGVKDKYQLTVTSQEKDAMLAVLHTCPGQAVPADEEGHHHHHH	soluble
MSLALRFITAEEAAEFVHHNDNVGFSGFTPAGNPKVVPAAIAKRAIAAHEKGNPFKIGMFTGASTGARLDGVLAQADAVKFRTPYQSNKDLRNLINNGSTSYFDLHLSTLAQDLRYGFYGKVDVAIIEVADVTEDGKILPTTGVGILPTICRLADRIIVELNDKHPKEIMGMHDLCEPLDPPARRELPVYTPSDRIGKPYVQVDPAKIVGVVRTSEPNDESDFAPLDPVTQAIGDNVAAFLVSEMKAGRIPKDFLPLQSGVGNVANAVLGALGDNPDIPAFNMYTEVIQDAVIALMKKGRIKFASGCSLSVSRSVIQDIYANLDFFKDKILLRPQEYSNNPEIVRRLGVITINTALEADIFGNINSTHVSGTRMMNGIGGSGDFTRNSYVSIFTTPSVMKDGKISSFVPMVAHHDHSEHSVKVIISEWGVADLRGKNPRERAHEIIDKCVHPDYRPLLRQYLELGVKGQTPQNLDCCFAFHQELAKSGDMRNVRWEDYMKEGHHHHHH	soluble
MSLAMRFMLLLMLVGMAHGALANPLRVCVGDVNVWPPFTYWQGSSAQEKAESLTGSATTLVLEALKKQEIEYQLHFMPWARVQQELAQATGRCDLTWDASYRAERAEYSYFSVPLYTIQLGYFTLPENSKDLNLATDSDVLCGVNGFNYQNFALPREPSLTLNSVQQALNMLQKERCDWFVSEIEPIYGGIMLGLYQLDRPIQHHFLGKTKEYHVQVRRSLPNAMPLLNGLNEYILQAQSSGHAQAVFDRFLSITQTEGHHHHHH	soluble
MSLANNKISQTTKKLSQIFNSEKQPAVFFDKNVSTIEENNSLLDGQTDVPVLDPHDLLVEVQAVSVNPVDTKLRQTGVASKIKILGYDAFGIVKNTGKDVTRFHAGDRVYYAGTTQRPGSNEKFQAVDERLVGRAPEKLNKSEIAAMPLTSITAYEILVDQLGLRFQNHAADGKNMLVINGAGGVGSVLLQMAAYLGINLSVTAHSSESIEWLKKYSVDKIYDYENIDETLADQKFDYIVFLYDPALYWDIAIKHIKPYGQLVSIVGTNKPLNMGPLKNIAVQFKWEYMFAKSDFNHNILSQGQALDKIAILLDAGILKTTLNKTFDLINAENLRQAYKLVESGRMQGKVVLNGEGHHHHHH	not soluble
MSLANQVLAVNDDLPIRTHKPVHSGKVRSVYWLTEEDSARLIKEKGYDVAPDAPLAIMVISDRISAFDCIWHGEGGLKGVPGKGAALNAISNHWFKLFKDNGLADSHILDIPHPFVWIVQKAKPVKIEAICRKYITGSMWRAYANGEREFCGIQLPEGLEKDKALPNLLMTPSTKGILKGIPGVPEADDVNITRQNIVDNYEAFNFSSAEDIAQYEKLLKEGFNVISQALEGIDQIFVDTKFEFGYVHDAAGNEKLIYMDEVGTPDSSRIWDAKEYQAGNIVENSKEGFRQFLLNHFPDPDILLNKERMPEREALARDNDLPVESLMDISRTYIGIAEKITGKPITLSENPKAEIIEILSKEYGLIDEGHHHHHH	soluble
MSLANRMPTPGSLAAFLKDRRTRLDPASFGFSGRRRTPGLRREEVAQRANISPTWYTWLEQGRGGAPSADVLNRIAKGLLLTEAEREHLFMLGLGRPPEVRYRGDEGVSPRLQRLIDTLEASPALVKTATWDVVAWNRAAEIVLTDYGTIPAGRRNILRFMFLTPHIRAKQHDWENLARFVVGAFRADAARAGAVSEVTQLVDELCSGSAEFATLWQENDVLAHGDGTKRLKHPELGDIELEYSSFAVDGRPDLNLTVYNPVDSEVADRIRSLAKRLREGHHHHHH	soluble
MSLAPLDLDKYVEIARLCKYLPENDLKRLCDYVCDLLLEESNVQPVSTPVTVCGDIHGQFYDLCELFRTGGQVPDTNYIFMGDFVDRGYYSLETFTYLLALKAKWPDRITLLRGNHESRQITQVYGFYDECQTKYGNANAWRYCTKVFDMLTVAALIDEQILCVHGGLSPDIKTLDQIRTIERNQEIPHKGAFCDLVWSDPEDVDTWAISPRGAGWLFGAKVTNEFVHINNLKLICRAHQLVHEGYKFMFDEKLVTVWSAPNYCYRCGNIASIMVFKDVNTREPKLFRAVPDSERVIPPRTTTPYFLEGHHHHHH	not soluble
MSLAQFTTNPQRFDPYKNFKFRIKWGADYVAGVSKISGLKRTTEVVKHREGGDPSSSRKSPGRTEYEAITMERGVTHDVAFEQWANKVWNYGSGLGKEVSLADFRKDLVIEVYNEAGQAAMRYKVFRCWVSEFQSMSDLDANGNAVLIQHLKLETEGWERDYDLVEPKEGTFTEPAEGHHHHHH	soluble
